The target of this assay is T1, 重组人NT-proBNP (recombinant human N-terminal pro-brain natriuretic peptide, bought from 重庆探生科技有限公司) (human, UniProt P16860 27-102).
T1 construct: also called NT-proBNP校准品; 人脑钠肽原N端肽
T1 sequence (looked up): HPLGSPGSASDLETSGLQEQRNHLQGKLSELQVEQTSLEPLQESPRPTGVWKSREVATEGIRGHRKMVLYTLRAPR
As to the kind of experiment: phage ELISA, NT-proBNP coated, HRP anti-phage antibody, A450.

B1: 人NT-proBNP特异性羊单链抗体scFv, displayed on phage (clone of the third round of panning) (scFv)
scFv: MALSQVRLQESGPSLVKPSQTLSLTCTVSGPSLTDYDVDWVRQAPGKALEWLGFINQGAPTGYDPALKSRLSITRDTSKSQVSLSLSSMTAEDTAVYYCARGAILGWGRGLLVTVSSQGSTSGSGKPGSGEGSTKGGQAVLTQPASVSGSPGQTVTISCTGTSGDIAGYNLVGWYQQLPNSAPKTLIYDVSTRRSGIPARFSGSKSGNTATLTISGLQAEDEADYYCSTSISANSVGFGSGTRLTVLGQPKSAPS
notes: The phage coat fusion partner is not described; also called 单克隆噬菌体
Turning to B1, the binding result is “binds”.

Source of the values: CN109678958A (CHONGQING BIOMEAN TECH CO LTD, dated 2019).
